In the DeepSol protein solubility set:

assay: soluble on expression in E. coli; label from the status in PepcDB or PDB records

Sequence	soluble on expression in E. coli
MSLQDIYGTLANLNTKLKQKLSHPYLAKHISAPKIDEDKLLLFHALFEEADIKNNDRENYIVTAMLVQSALDTHDEVTTARVIKRDENKNRQLTVLAGDYFSGLYYSLLSEMKDIYMIRTLATAIKEINEHKIRLYDRSFKDENDFFESVGIVESALFHRVAEHFNLPRWKKLSSDFFVFKRLMNGNDAFLDVIGSFIQLGKTKEEILEDCFKKAKNSIESLLPLNSPIQNILINRLKTISQDQTYHQKVEEGEGHHHHHH	soluble
MKIALIGATGMAGSRILEELVSRGHYVKALARDTHKVADTERVMAVDIDLNDHDALVEALRGQDAVISAVRFHGLDANALFNAIHDSKVKRYLVVGGAGSLHVPHQNTRVLDSEDFPEAYKPEAEAAAHFLDKLKEKDDLDWTFISPSAEFGPGKRTGEFRLGKDELLVGEEGSKISAEDFAVALADELEHNNHIQQRFTVGYLEHHHHHH	not soluble
MLIMNIRKIDDYTYEIPREGDMIVHGIVYSTDKLFKNTVEDGSLNQVVNVAKLPGIVEASYAMPDIHLGYGFPIGGVAAFDYDEGIISPGGVGYDINCGVALLRTGMNYAQIKPRIKDITDYIFQEVPSGLTSRKGFPVNQNDLQEILTSGLKWAVSRGLATELDMINTEDNGSIESHGTHVSKQAMQRGLSQIGTLGAGNHFLEIQRVSDIFDEDVARKFGLYKDEVTVMIHTGSRGLGHQVATDYLRELRESRESIKTSDPELISIHVKSKIGENYLDAMKSAANFAFVNRQMAIYGVRKVFKKFFDVEPELVYSLAHNIAKVEDHIVEGKTKSLIVHRKGATRAFGPGKSSPPFEDTGHPVLIPGSMGTASYVLVGVKENLIKSFGTACHGSGRVLSRNQAIKKFSSIVDRELEEKDVYARPATKRVLYEEAPGSYKNVDEVVAAVEGAHLARSIVRMVPLAVVKGLEHHHHHH	not soluble
MGSDKIHHHHHHMVKLKDGFTGERALVLPRIIVDKMEEDPLTSMLHITDIGYYPKAKHHFRERKEPINQYVFIYCIDGAGSYRIGDQEYTVSANQYFILPAGVPHSYASNKSTPWTIYWIHFKGILAPFYAKDANRPMDIQSEQHSRISTRINLFEEIFNTLKNGYSNENLRYAFSMFHFYLGTLRYVQQYRNAGTNEAEDEGIVNVAIHYMKENMEKHLSLEEISTQIGYSPSHFSMLFKKQTGHSPLTYFNLLKMQQACLLLDTTDMKINQICYKIGIEDTYYFSRLFSKIMGMSPREYRKSKKG	not soluble
MTICRPGKGHLMIQFDAVHKRFPNGTTAVHDLSLEMPEGGVTVLVGSSGCGKTTTLRMINRMVDPTSGTIRVGGRDILEQDAAELRRSIGYVIQQSGLFPHRTVLDNIATVPLLLGWGRRKARARAAELLDTVGLAADAGRRYPHQLSGGQQQRVGVARALAADPPVLLMDEPFGAVDPVVRTQLQDELLRLQKELSKTIVFVTHDIDEAVRLGDQIAVFRTGGHLVQCASPAELLARPADDFVADFLGAERGLKLLSLTTLADVPQGPAPEGGAWTLVLDEARRPQHWRSKDGAELPVRPLRDRDSLLAALNESVASPNGLTVRVDADGVLTGVSSRDDIHEHAGRAHSEASVAALEHHHHHH	not soluble
EGELRLGERVLVVGQRLGTIRFFGTTNFAPGYWYGIELEKPHGKNDGSVGGVQYFSCSPRYGIFAPPSRVQRVTDSLDTLSEI	soluble
MNIGVIGTGNMGTILIEAFLDSGAVKADQLVITNRTLAKAFAIQRAHPGIAVVADAAEVIKQSSLVFLCVKPLDIHPLLQQLAPHWTREHCLVSITSPISVEQLEAAVPCQIVRAIPSIANRALSGSILVTFGSRCSTTCRQTIDDLLRRIASPVYIDEAITRVASDISSCGPAFFSYLLQRFIDAAAAKTAITKEQATMLATDMIIGLGELLKRNLYTLPTLQEKVCVKGGITGEGIAVLEQRMNGVFEEVLAKTHEKFKEDVEKVKQQFS	not soluble
DTVIAMDAYTPHDVTTQAQQLIDATPTAPALAPMTWPTPRVAARVRTQRDQRGRAPKPPRARGIDTIQHGRDDIDLRAISQLACTSQTQAIARIIATLEKRVDDHTPMITLVNDVLAEIETHGWAALSGQRAGSHAERHPGRVAMPRPQEVMAALNRYRGLSLVGSLDA	not soluble
MGSDKIHHHHHHMGFDVEALKAALEAHGRVIRVVVAEVKGSAPREVGAAMLVWDGGQSGTIGGGTLEFEAADAARRQDAPYRLSTHALGPDLGQCCGGAVTLLSEVYTEVNIAQLTGQVISRAVAPGPEPLAVSRILNHARAQGLAPAPQLIAGWMIEPVACATRPLWIWGAGHVGRALVEVLAPLPDYAITWVDVMRSKYPQEIPASVTALPAQEPGRLVPHAPTEAYHLILTYSHQLDLALCHRLLEHGFDFAGLIGSKTKWARFRARLAALGHRPEQIARLTCPIGMPELGKHPHAIAIGVAAELMALSQRLDLKKEHSA	not soluble
MTTYTFDQVEEAIEQLYPDFTINTIEISGEGNDCIAYEINGNFIFKFPKHSRASINLLNEVTVLKTIHNELSLPIPEVVFTGMPSEMCQMSFAGFTKIKGVPLTPLLLKNLPKQSQDQAAKDLARFLSELHSINISGFKSNLVLDFREKINEDNKKIKKLLSRELKGHQMKKVDDFYRDILDNEIYFKYYPCLIHNDFSSDHILFDTEKNTICGIIDFGDAAISDPDNDFISLMEDDEEYGMEFVSKILNHYKHKDIPTVLEKYMMKEKYWSFEKIIYGKEYGYMDWYEEGLNEIRSIKIK	soluble
MSLIINNIALHFLSKKEETGEVVLRLGPENAEFAQENAKVTNFVDGLHAIYNAKGSKAYGSFSSMPSEGDSARFVDLMESYLTEQQNFYDFSVQAGNVLKNEIEKYDIEETGYFVICHYEYMGGRYLFVAVIPVSEHYSVDGELNISAAQHLDTNKLQLAARIDLFDYKDNSQGNRYISFVKGRAGRKVSDFFLDFLGCEEGLNSKEQTQTLVQAVEDYVSVNQLDPAEKQKTRKDLLSYCKEQKASSQDVSLQEVGKVIESAGTEQDFYQFCQTQSYPIEESFPHEQAVVNKITKYSGYGNGISLSFERSHFGEDVVYNPHNDSLIIYKVPPNLKEQLMALLDSEKVETDLEHHHHHH	not soluble
MVNSSKSILIHAQNKNGTHEEEQYLFAVNNTKAEYPRDKTIHQLFEEQVSKRPNNVAIVCENEQLTYHELNVKANQLARIFIEKGIGKDTLVGIMMEKSIDLFIGILAVLKAGGAYVPIDIEYPKERIQYILDDSQARMLLTQKHLVHLIHNIQFNGQVEIFEEDTIKIREGTNLHVPSKSTDLAYVIYTSGTTGNPKGTMLEHKGISNLKVFFENSLNVTEKDRIGQFASISFDASVWEMFMALLTGASLYIILKDTINDFVKFEQYINQKEITVITLPPTYVVHLDPERILSIQTLITAGSATSPSLVNKWKEKVTYINAYGPTETTICATTWVATKETIGHSVPIGAPIQNTQIYIVDENLQLKSVGEAGELCIGGEGLARGYWKRPELTSQKFVDNPFVPGEKLYKTGDQARWLSDGNIEYLGRIDNQVKIRGHRVELEEVESILLKHMYISETAVSVHKDHQEQPYLCAYFVSEKHIPLEQLRQFSSEELPTYMIPSYFIQLDKMPLTSNGKIDRKQLPEPDLTFGMRVDYEAPRNEIEETLVTIWQDVLGSHHHHHH	soluble
MCDIGNRQAYQRAQLDALLGRVRLQANQMEWRPGIYVGEGTTIASSAQLEPPLWIGQHCYIGEEVQLKAGTVIGDESRIEAGACLDRAVVWNRVQIGQRSHLEGCVLEHHHHHH	not soluble
MSTSSHTVLLIQTSPRLDSRTWGDYESVTDALDALCKMFEDFLSKKSAAPVTYDVSQVYEFLDKLSDVSMMIFNRETGQYIGRTRAWIKQQVYEMMRGRCQHPEGGEKVIVGY	not soluble
MSRSQVTGKEFVLRCVFNDVSNMNDNDMRFGTVEEYFNVPWIFQIQRNNGNLGIYLRCTNLKDQEMWSIFSELELKLVSVYSDTRDQKCKIDMCFGHDSGKFYSSYGWSEFISWNELETSFMEAGSITVEARVLINKSIGFYTPKLMDFDEKMMEYSDIVVLVNGQRFYLLKKFLAFHSTFFESLFLGGFYEAKLAEVPLYDIDVDDFQKFLEVLYGFPVINVIVPINKLTLQQSEMLNACAQYAQTGSQKLTREANYVITEVRLF	not soluble
MGSDKIHHHHHHMVKMRALLSGYYGKGNGGDEALLATLLQMLPSHVTPVVLSGNPEETRDRYNVETYDRMAPLAVLQALRSSDALIWGGGSIIQDVTSTISPFYYGGMMALAQKMGLKTVAWAQGIGPLVRPQTRWLARQTFGNCTKVSVRDRASAALLSDWQIPCIIAPDPVWALESKPVPGLWDLPAPRVAVTLRSHPQLTETRLANLTRALVDFQKATQAFILLLPFQKSEDLSIAEAIQPHLKDVSQILCLEDPQLLKGVFRGVEMAIGMRLHSLIMAAAEGCRCFALSYDPKVNRLMEDLEMPGWDLASLPNDPNLISLTWMEHYANGDPLSPDQIQSLVDRALIHRELLSQAFI	not soluble
MGSDKIHHHHHHMRYFSTDSPEVKTIVAQDSRLFQFIEIAGEVQLPTKPNPFQSLVSSIVEQQLSIKAASAIYGRVEQLVGGALEKPEQLYRVSDEALRQAGVSKRKIEYIRHVCEHVESGRLDFTELEGAEATTVIEKLTAIKGIGQWTAEMFMMFSLGRLDVLSVGDVGLQRGAKWLYGNGEGDGKKLLIYHGKAWAPYETVACLYLWKAAGTFAEEYRSLEELLHHGNQC	soluble
MGSDKIHHHHHHMQPRLVIAGTHSGVGKTTVTLGLMAAFVEKGNIVQGFKCGPDYIDPSYHRAVTKRASRNLDSWMVSEDVVNDIFIEGCNGADLSIIEGVMGFYDGKASTSDKGSTADISLLLQAPVLLVVDISGMARSAAAVVKGFQQLNEKVKIAGVILNGAGSERHAEMCSEAIKEACGIPALGYLKKGDVPSIPERHLGLVPALERGEHDSLFSQLAAVVSRQFDLERIERLALEASALSRRTNLFQQTKRPSVVKIAVAYDAAFHFYYEENFTLLRQAGAELVYFSPLRGEDLPSHCDGLYLGGGFPEEFADELSQWIKDHPQLKKRVQSGLPTLAECGGYMFLGEQLTTTKGKTVEMAGVIPMVVQMENKLVSLGYRDVTPLDDSFLLSKGQQIRGHEFHYSKAVYTETERPAYFVKGLFGEGKEGYMSDHLLAGYTHLHFASEPAVATQWVKACEVYKNRRLHRGQVSQ	not soluble
MGSDKIHHHHHHVVVFCGMGTLGPSFPEVPWLRLGVMSTDPKPGAEHPHEVENLDNHECWRLLRSVSVGRLAVWVEDHPDIFPINYKVDHGTLVFRTADGTKLQAATGDTPVAVEADGVDADSGVAWSVVIKGQAAPVKNQQEVLDTVGLLLFPWQAGKKEHFVRITPDTVTGRRFKVTPPLTWWTPLDDATRSGFE	not soluble
MPRILFTVPPFPVFIAAGEGVFKKGETHVKRVFSVFDLIYVKQGTLYITENETSFSVEGGEYILLSPGLEHYGTKGSDEATSYYWLHFDEHRYEFTAKGGSNWSELQQEKGSFEELARYGLALPRKGKVQRPQFMAQQFEKLIDYSAENSDLPLRKQILFEELMLHLQKEAFQIPSAKERVAWEAARYLQEHYKEKTTIKDLSLALHYHQDYVSRCMQQVLGVTPAQYTNRVRMTEAKRLLSSTNDKMGVIAETVGMEDPTYFSKLFKQIEGISPIEYRKIVSRKVQ	not soluble
MPMRLQKSTMCGLYAVLELAANPDRQVSAGDIADKYDISLNHLAKVLRALVRARLIESVRGPGGGYRFAGNPKRVTLLDIIALFEDTGLDLQEAASDDHEESRALHKVLRDIDEIAMTTLRSVSITSLLKVIDTERRKTERGPNGASARHSSAGRA	not soluble
